# According to publication PMC6044281, “Cooperative Domain Formation by Homologous Motifs in HOIL-1L and SHARPIN Plays A Crucial Role in LUBAC Stabilization” (Cell reports, 2018):
# B1: mSHARPIN_(163–301) [mouse] / GST-mHOIP_(466–630) [mouse] (parent)
# chain 1: SSGNFKKEELATRLSQAIAGGDEKAAAQVAAVLAQHHVALNVQLMEAWFPPGPIRLQVTVEDATSVLSSSSSAHVSLKIHPHCSIAALQDQVFSEFGFPPAVQRWVIGRCLCMPERSLASYGVSQDGDPAFLYLLSAPR
# chain 2: SCGDPEKQRQDKMRKEGLQLVSMIQEGETAGASPEEVFSALQYSGTEVPLQWLRSELSYVLEMVAELAGQQDPELGAFSCQEARKAWLDRHGNLDEAVEECVRARRRKVHELQSLGFGPKEGSLQALFQHGGDVARALTELQRQRLEPFHQRLWDRDPEPTPCWD
# Variants of: B1
# Experiment: SPR
# Conditions: with GST-mHOIP_(466–630) [mouse]; response read at end of injection (about 185 s); GST-mHOIP D-UBA WT immobilized with anti-GST antibody; parent: 20; read off a plot
row,response,Variant
1,-20 RU,chain 1 SSGNFKKEELATRASQAAAGGDEKAAAQVAAVLAQHHVALNVQLMEAWFPPGPIRLQVTVEDATSVLSSSSSAHVSLKIHPHCSIAALQDQVFSEFGFPPAVQRWVIGRCLCMPERSLASYGVSQDGDPAFLYLLSAPR [chain 1 L14A I18A]
